target: recombinant human FcγRIIb protein (R&D Systems) (human) (UniProt P31994); test: SPR (Biacore 3000), antibody captured on protein A/G chip, FcγR injected, 1:1 Langmuir fit
Sequence (P31994 46-217 limits assumed): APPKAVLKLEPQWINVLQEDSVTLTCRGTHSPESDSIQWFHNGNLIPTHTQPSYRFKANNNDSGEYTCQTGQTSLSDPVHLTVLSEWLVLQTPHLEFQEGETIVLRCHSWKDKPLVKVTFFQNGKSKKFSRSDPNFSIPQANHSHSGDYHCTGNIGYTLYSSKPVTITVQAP

Kd	Substance
1800 nM	anti-CD19 antibody HuAM4G7, WT (native) IgG1

target: FcγRIIaR; test: SPR

Substance	Kd
H268E	269 nM
A327D	536 nM
S239E	1250 nM
H268Q	544 nM
S239N	990 nM
H268D	205 nM
H268N	481 nM
S298D	592 nM
S267G	517 nM
A327N	1410 nM
P329E	10000 nM
V266D	1220 nM
V266M	274 nM
A327Q	1350 nM
S239Q	1010 nM
A327G	2690 nM
D265E	2790 nM

Continued, values first:

Kd	Substance
11.6 nM	S267E/L328I
29.1 nM	S267E
20.6 nM	S267E/H268E
200 nM	S267A
51.3 nM	S267E/A327D
166 nM	L328F
185 nM	S267E/L328H
29.3 nM	S267E/A327E
3.4 nM	S267E/H268E/L328F
7.06 nM	S267E/L328Y
2.06 nM	S239D/S267E/L328F
28 nM	V266M/S267E
95.5 nM	S267D
20.7 nM	S267E/N325L

target: FcγRIIIaF; test: SPR

Kd	Substance
5110 nM	L328F

target: recombinant human FcγRIIb protein (R&D Systems) (human) (UniProt P31994); test: Biacore, 'according to the data herein'

Kd	Substance
2000 nM	anti-CD19 antibody HuAM4G7, WT (native) IgG1

Reference: patent US20160060360A1
